One series addresses T1, TF10.
T1 construct: Trivalent connector
T1 chain: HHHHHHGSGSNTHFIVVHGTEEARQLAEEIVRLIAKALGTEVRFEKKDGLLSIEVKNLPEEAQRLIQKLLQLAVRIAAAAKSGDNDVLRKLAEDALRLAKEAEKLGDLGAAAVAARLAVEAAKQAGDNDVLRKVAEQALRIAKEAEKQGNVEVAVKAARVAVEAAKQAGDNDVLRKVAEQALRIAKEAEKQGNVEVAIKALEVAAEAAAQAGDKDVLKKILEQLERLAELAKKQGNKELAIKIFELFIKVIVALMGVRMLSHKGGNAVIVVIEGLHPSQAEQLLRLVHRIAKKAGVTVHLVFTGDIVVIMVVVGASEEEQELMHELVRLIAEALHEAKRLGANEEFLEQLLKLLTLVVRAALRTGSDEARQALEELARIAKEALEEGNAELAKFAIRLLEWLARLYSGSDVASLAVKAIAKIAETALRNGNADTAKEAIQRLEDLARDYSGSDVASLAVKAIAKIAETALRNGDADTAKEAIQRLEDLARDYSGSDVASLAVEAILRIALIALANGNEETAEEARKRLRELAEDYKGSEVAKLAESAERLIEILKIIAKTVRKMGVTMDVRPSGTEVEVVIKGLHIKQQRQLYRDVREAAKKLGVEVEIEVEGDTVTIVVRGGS
Description: SEC (A230) of A---, -BCD and ABCD and negative-stain EM; components named in the legend of FIG. 17A, which paragraph 104 ties to FIG. 4A. As for the experimental part:
Complexes and individual components were diluted in 20 mM Tris pH 8.0, 100 mM NaCl. After o/n equilibration of the mixtures at room temperature or 4 degrees C., 500 ul of sample was injected onto a Superdex™ 200 10/300 increase GL (dimers, linear assemblies) or Superose™ 6 increase 10/300 GL (symmetric assemblies) (all columns from GE healthcare) using the absorbance at 230 nm or 473 nm (for GFP tagged components) as read-out. Dimers were mixed at monomer concentrations of 5 μM or higher. Trimer and ABCD tetramer mixtures contained 5 μM of the bivalent connector, and 7.5 μM of each terminal cap (lower absolute concentrations with the same ratios were used for some trimers). ABCA tetramer mixtures contained 5 μM per bivalent connector and 15 μM terminal cap. The hexamer mixture contained 3 μM of components C and D, 3.6 μM of B and E, and 4.4 μM of A and F. The branched assembly shown in FIG. 4A contained 2.8 μM of the trivalent connector and 4 μM of each cap. For the exchange experiment shown in FIG. 5A, the ABC trimer was preincubated at concentrations of 6 μM B and 9 μM each of A and C. C′ was then added to reach a final concentration of 2 μM B, 3 μM each of A and C, and 6 μM C′.
SEC peak fractions were concentrated prior to negative stain EM screening. Samples were then immediately diluted 5 to 150 times in TBS buffer (25 mM Tris pH 8.0, 25 mM NaCl) depending on sample concentration. A final volume of 5 μL was applied to negatively glow discharged, carbon-coated 400-mesh copper grids (01844-F, TedPella, Inc.), then washed with Milli-Q™ Water and stained using 0.75% uranyl formate as previously described (53). Air-dried grids were imaged on a FEI Talos L120C TEM (FEI Thermo Scientific, Hillsboro, OR) equipped with a 4K×4K Gatan OneView™ camera at a magnification of 57,000× and pixel size of 2.51. Micrographs were imported into CisTEM software or cryoSPARC™ software and a circular blob picker was used to select particles which were then subjected to 2D classification. […]

The next series addresses T2, DFB0.
T2 construct: Bivalent connector
T2 chain: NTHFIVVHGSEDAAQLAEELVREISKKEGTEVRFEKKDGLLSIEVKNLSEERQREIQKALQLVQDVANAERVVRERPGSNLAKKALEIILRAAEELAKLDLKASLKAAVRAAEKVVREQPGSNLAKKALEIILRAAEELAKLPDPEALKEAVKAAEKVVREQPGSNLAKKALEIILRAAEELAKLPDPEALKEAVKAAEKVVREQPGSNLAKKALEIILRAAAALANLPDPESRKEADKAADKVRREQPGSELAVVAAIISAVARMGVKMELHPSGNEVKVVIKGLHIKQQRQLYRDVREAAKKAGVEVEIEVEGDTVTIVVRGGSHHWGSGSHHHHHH
Briefly: SEC of mixed components; trimer listed in Table 6.

In the next series the target is T3, DFB-1.
T3 construct: Bivalent connector
T3 chain: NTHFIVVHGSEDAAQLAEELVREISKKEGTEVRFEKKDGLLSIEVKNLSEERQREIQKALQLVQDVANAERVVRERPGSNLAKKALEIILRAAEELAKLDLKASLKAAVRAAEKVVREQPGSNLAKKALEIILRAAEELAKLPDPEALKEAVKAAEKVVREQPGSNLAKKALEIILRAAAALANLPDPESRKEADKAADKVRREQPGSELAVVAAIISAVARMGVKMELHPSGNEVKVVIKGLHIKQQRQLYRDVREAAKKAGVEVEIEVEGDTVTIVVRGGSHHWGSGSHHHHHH
Briefly: SEC of mixed components; trimer listed in Table 6.

In a further series the target is T4, TF3.
T4 construct: Trivalent connector
T4 chain: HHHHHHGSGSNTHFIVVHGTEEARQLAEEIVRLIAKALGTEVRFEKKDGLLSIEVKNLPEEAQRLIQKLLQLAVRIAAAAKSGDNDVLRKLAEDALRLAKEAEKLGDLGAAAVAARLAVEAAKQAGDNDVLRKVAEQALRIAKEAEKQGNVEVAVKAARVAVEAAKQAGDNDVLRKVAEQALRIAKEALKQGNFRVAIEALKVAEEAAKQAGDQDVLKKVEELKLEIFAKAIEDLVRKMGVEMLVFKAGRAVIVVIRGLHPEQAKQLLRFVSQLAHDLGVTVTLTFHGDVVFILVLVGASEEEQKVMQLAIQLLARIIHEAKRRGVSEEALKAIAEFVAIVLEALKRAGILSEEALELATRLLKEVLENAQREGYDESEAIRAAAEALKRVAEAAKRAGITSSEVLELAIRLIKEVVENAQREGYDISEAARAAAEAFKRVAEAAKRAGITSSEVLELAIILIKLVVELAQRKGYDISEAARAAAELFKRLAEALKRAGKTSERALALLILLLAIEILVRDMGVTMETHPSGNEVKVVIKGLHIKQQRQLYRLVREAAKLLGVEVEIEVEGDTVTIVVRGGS
Briefly: SEC of the trivalent connector TF3, its three caps and the full mixture, with SDS-PAGE of the fractions; components named in the legend.

Series [1] concerns the molecule itself. Briefly: SEC titration (Superdex 200, normalised A230) of 274A53 and 29A53 alone; self-association.

B1: 101B62 (designed binder)
chain: HHHHHHGSGLNDIFEAQKIEWHEAENLYFQSGSNDEKRKRAEKALQRAQEAEKKGDVEEAVRAAQEAVRAAKESGDNDVLRKVAEQALRIAKEAEKQGNVEVAVKAARVAVEAAKQAGDNDVLRKVAEQALRIAKEALKQGNVDVAAKAAQVAEEAAKQAGDQDVLRKVKEVQIEIVLAAIELTVRKMGVTMETHRSGREVKVVIKGLHESQQEQLLEDVLRIAELAGVRVRIRFKGDTVTIVVRG
notes: also called LHD101B62
B1: the binding result with TF10, in the series with DFB0, with DFB-1 and with TF3 was “binds” each time.

B2: 274A53 (designed binder)
chain: TTNFHLINGSEEARQLIEKAVRAISKKEGTEVHFEKSDGTLEIRVKNLHEKREREIKKVIELILEVAAAERIVRERPGSNLAKKALEIILRAAEELAKADVDAALEAAVRAAEKVVREQPGSNLAKKALEIILRAAEELAKLPDPEALKEAVKAAEKVVREQPGSELAKKALEIIERAAEELKKSPDPEAQKEAKKAEQKVREESGSHHWGSGLNDIFEAQKIEWHEGSHHHHHH
notes: also called LHD274A DHR53 stop; LHD274A53
For the molecule B2, the binding result in series [1] was “no binding (tested: 8.0 uM)”; with TF10, “binds”; with DFB0, “binds”; in the series with DFB-1 it was “binds”; in the series with TF3, “binds”.

For the origin of these results see patent US20240368233A1 (University of Washington, published 2024).
